{
  "source": "paper PMC10281804",
  "about": "“The structural basis of the talin–KANK1 interaction that coordinates the actin and microtubule cytoskeletons at focal adhesions” (Open Biology, 2023)",
  "molecules": {"B1": {"name": "KANK1 L41E: mCherry-KANK1 with point mutation L41E (protein)", "chain": "MAHTTKVNGSASGKAGDILSGDQDKEQKDPYFVETPYGYQEDLDFLKYVDDIQKGNTIKRLNIQKRRKPSVPCPEPRTTSGQQGIWTSTESLSSSNSDDNKQCPNFLIARSQVTSTPISKPPPPLETSLPFLTIPENRQLPPPSPQLPKHNLHVTKTLMETRRRLEQERATMQMTPGEFRRPRLASFGGMGTTSSLPSFVGSGNHNPAKHQLQNGYQGNGDYGSYAPAAPTTSSMGSSIRHSPLSSGISTPVTNVSPMHLQHIREQMAIALKRLKELEEQVRTIPVLQVKISVLQEEKRQLVSQLKNQRAASQINVCGVRKRSYSAGNASQLEQLSRARRSGGELYIDYEEEEMETVEQSTQRIKEFRQLTADMQALEQKIQDSSCEASSELRENGECRSVAVGAEENMNDIVVYHRGSRSCKDAAVGTLVEMRNCGVSVTEAMLGVMTEADKEIELQQQTIESLKEKIYRLEVQLRETTHDREMTKLKQELQAAGSRKKVDKATMAQPLVFSKVVEAVVQTRDQMVGSHMDLVDTCVGTSVETNSVGISCQPECKNKVVGPELPMNWWIVKERVEMHDRCAGRSVEMCDKSVSVEVSVCETGSNTEESVNDLTLLKTNLNLKEVRSIGCGDCSVDVTVCSPKECASRGVNTEAVSQVEAAVMAVPRTADQDTSTDLEQVHQFTNTETATLIESCTNTCLSTLDKQTSTQTVETRTVAVGEGRVKDINSSTKTRSIGVGTLLSGHSGFDRPSAVKTKESGVGQININDNYLVGLKMRTIACGPPQLTVGLTASRRSVGVGDDPVGESLENPQPQAPLGMMTGLDHYIERIQKLLAEQQTLLAENYSELAEAFGEPHSQMGSLNSQLISTLSSINSVMKSASTEELRNPDFQKTSLGKITGNYLGYTCKCGGLQSGSPLSSQTSQPEQEVGTSEGKPISSLDAFPTQEGTLSPVNLTDDQIAAGLYACTNNESTLKSIMKKKDGNKDSNGAKKNLQFVGINGGYETTSSDDSSSDESSSSESDDECDVIEYPLEEEEEEEDEDTRGMAEGHHAVNIEGLKSARVEDEMQVQECEPEKVEIRERYELSEKMLSACNLLKNTINDPKALTSKDMRFCLNTLQHEWFRVSSQKSAIPAMVGDYIAAFEAISPDVLRYVINLADGNGNTALHYSVSHSNFEIVKLLLDADVCNVDHQNKAGYTPIMLAALAAVEAEKDMRIVEELFGCGDVNAKASQAGQTALMLAVSHGRIDMVKGLLACGADVNIQDDEGSTALMCASEHGHVEIVKLLLAQPGCNGHLEDNDGSTALSIALEAGHKDIAVLLYAHVNFAKAQSPGTPRLGRKTSPGPTHRGSFD", "modifications": "left off: mCherry, C-terminal, kept"}, "B2": {"name": "KANK1 L43E: mCherry-KANK1 with point mutation L43E (protein)", "chain": "B1 chain with E41L, L43E", "modifications": "left off: mCherry, C-terminal, kept"}, "B3": {"name": "KANK1 F45E: mCherry-KANK1 with point mutation F45E (protein)", "chain": "B1 chain with E41L, F45E", "modifications": "left off: mCherry, C-terminal, kept"}},
  "key": {"[1]": {"system": "focal adhesions of NIH3T3 fibroblasts", "assay": "KANK1 localization to focal adhesions (co-expression with GFP–paxillin)", "format": "cell-based, mouse", "settings": "NIH3T3 fibroblasts co-expressing GFP–paxillin", "experimental": "(§1) NIH3T3 mouse fibroblasts and HEK293T human epithelial cells were obtained from the American Type Culture Collection (ATCC). The vinculin null and WT mouse embryonic fibroblasts (MEFs) originate from the Eileen Adamson laboratory. All cells were maintained in Dulbecco's Modified Eagle Medium (DMEM; Sigma) supplemented with 10% fetal bovine serum (FBS, Gibco), 1% L-glutamine (Sigma) and 1% non-essential amino acids (Sigma). Talin1&2 null cells were cultured in DMEM F-12 (Gibco) supplemented with 10% FBS, 1% L-glutamine, 1% non-essential amino acids and […] HEPES (Sigma). All cells were cultured at 37̊C supplied with 5% CO2 and 95% humidity. Transient transfections were performed using Lipofectamine LTX with Plus Reagent (Invitrogen) to NIH3T3 cells, Lipofectamine 2000 (Invitrogen) to talin null cells, and jetPRIME reagent (Polyplus) to MEFs and HEK293T cells, as per the manufacturer's instructions.\n(§2) For the construction of mCherry-KANK1, human FL-KANK1 (generous donation from the Bershadsky laboratory) cDNA was tagged in the C-terminal site with pmCherry (Clontech) by restriction digestion. Point mutations (L41E, L43E, F45E and V49E) were introduced in mCherry-KANK1 by site-directed mutagenesis (NEB) using the following oligonucleotides: […]ga[…] and […] for L41E; […]ga[…] and […] for L43E; […]gaa[…] and […] for F45E; […]a[…] and […] for V49E. Generation of GFP–talin1–cBAK and GFP–cBAK was as previously described. G1404L was introduced on GFP–talin1–cBAK by the method above using […]ctt[…] and […]. To generate GFP–talin1 R7DD–cBAK and GFP–talin1 R9DD-cBAK constructs, R7-DD (3555 bp) and R9-DD (2661 bp) were amplified from talin-1 (Mus musculus). Restriction digestion with XhoI and HindIII FastDigest enzymes (Thermo Scientific) was used to linearize GFP–cBAK. DNA assembly was performed to join R7-DD and R9-DD to linearized the GFP–cBAK vector using the NEBuilder HiFi DNA assembly kit (NEB).\n(§3) Images of fixed samples in PBS were acquired at room temperature using an Olympus IX83 inverted microscope equipped with a 60×/1.42 PlanApo N oil objective and a QImaging Retiga R6 CCD camera, controlled by Metamorph software. Samples were illuminated using LEDs (UV/Cyan/Green-Yellow/Red, Lumencor) for fluorescence excitation; a Sedat filter set (DAPI/FITC/TRITC/Cy5, Chroma, 89000) was used."}, "GFP–talin1–cBAK": {"system": "GFP–talin1–cBAK", "assay": "Mitochondrial targeting system (MTS): recruitment of mCherry–KANK1 by GFP–talin1–cBAK", "format": "cell-based", "settings": "NIH3T3 fibroblasts and HEK293T cells; fluorescence microscopy colocalization", "text": "To examine the effect of these KANK1 mutations on talin interactions in cells, we next used a mitochondrial targeting system (MTS) which we previously used to screen for defined protein–protein interactions. In this assay, one protein is fused to a small peptide sequence from the pro-apoptotic protein BAK (cBAK) which leads to its insertion into the outer membrane of mitochondria. Proteins that interact with the cBAK-tagged protein will get recruited to mitochondria, and this recruitment can be verified either by visualizing colocalization using fluorescence microscopy (figure 4a) or by purification of mitochondria followed by detection of co-precipitates using biochemistry (figure 4b,c). […] To confirm that the interaction was meditated by the R7 domain, we performed the colocalization assays with truncated talin constructs.\nas §1, §2, §3"}, "talin1-cBAK": {"system": "talin1-cBAK", "assay": "Mitochondria pulldown of KANK1 WT or point mutations, Western blot", "format": "cell-based", "settings": "HEK293T cells; mitochondrial pulldown, triplicate experiments, normalized to WT; *** p < 0.001 (one-way ANOVA, Dunnett's)", "text": "as §2\nFor fixed cell imaging, cells were cultured in glass-bottom dishes (IBL) coated with bovine fibronectin (Sigma) at a final concentration of 10 µg ml^−1. Samples were fixed in 4% paraformaldehyde (PFA, Sigma), and warmed to 37̊C, for 15 min before being washed three times with PBS. For immunofluorescence staining, samples were permeabilized at room temperature with 0.5% Triton X-100 (Sigma) for 5 min before being washed three times. […]\nProtein samples were extracted from cells and mitochondria, respectively, using RIPA lysis buffer (Chromotek) supplemented with protease inhibitors. […] Primary antibody signal was detected using goat anti-mouse IgG conjugated to IRDye 680RD (ab216776, abcam) and goat anti-rabbit IgG conjugated to IRDye 800CW (ab216773, abcam) secondary antibodies, diluted 1 : 15 000, imaged with an Odyssey CLx imaging system (LI-CO Biosciences). […]"}, "[2]": {"system": "α/β liprin in NIH3T3 fibroblasts", "assay": "α/β liprin localization (CMSC assembly)", "format": "cell-based, mouse", "settings": "NIH3T3 fibroblasts co-transfected with GFP–paxillin and mCherry–KANK1 F45E; immunostaining", "experimental": "as §1, with “instructions. […]” for “instructions.”\nas §3"}},
  "note": "Residue numbers refer to the chain shown, from its start. Numbers in names are those of the source.",
  "data": [
    {"molecule": "B1", "values": [
      {"measurement": "localization of mCherry–KANK1 to FAs / FA belt", "setting": "[1]", "value": "abolished localization to FAs and the FA belt"},
      {"measurement": "recruitment of mCherry–KANK1 to mitochondria by GFP–talin1–cBAK", "setting": "GFP–talin1–cBAK", "value": "abolishes GFP–talin–cBAK mediated recruitment"},
      {"measurement": "relative KANK1 binding to talin1-cBAK (%)", "setting": "talin1-cBAK", "value": "not detected"}
    ]},
    {"molecule": "B2", "values": [
      {"measurement": "localization of mCherry–KANK1 to FAs / FA belt", "setting": "[1]", "value": "abolished localization to FAs and the FA belt"},
      {"measurement": "recruitment of mCherry–KANK1 to mitochondria by GFP–talin1–cBAK", "setting": "GFP–talin1–cBAK", "value": "abolishes GFP–talin–cBAK mediated recruitment"},
      {"measurement": "relative KANK1 binding to talin1-cBAK (%)", "setting": "talin1-cBAK", "value": "not detected"}
    ]},
    {"molecule": "B3", "values": [
      {"measurement": "α/β liprin localization", "setting": "[2]", "value": "loss of α/β liprin from both the adhesion belt and the cellular cortex"},
      {"measurement": "localization of mCherry–KANK1 to FAs / FA belt", "setting": "[1]", "value": "abolished localization to FAs and the FA belt"},
      {"measurement": "recruitment of mCherry–KANK1 to mitochondria by GFP–talin1–cBAK", "setting": "GFP–talin1–cBAK", "value": "abolishes GFP–talin–cBAK mediated recruitment"},
      {"measurement": "relative KANK1 binding to talin1-cBAK (%)", "setting": "talin1-cBAK", "value": "not detected"}
    ]}
  ]
}
